Test results published in ChEMBL document CHEMBL2074013, “Effect of 17 beta-estradiol-D-17 beta-glucuronide on the rat organic anion transporting polypeptide 2-mediated transport differs depending on substrates” (Drug Metab Dispos, 2002).

Substrate: C[C@H]1O[C@@H](O[C@H]2[C@@H](O)C[C@H](O[C@H]3[C@@H](O)C[C@H](O[C@H]4CC[C@@]5(C)[C@H](CC[C@@H]6[C@@H]5C[C@@H](O)[C@]5(C)[C@@H](C7=CC(=O)OC7)CC[C@]65O)C4)O[C@@H]3C)O[C@@H]2C)C[C@H](O)[C@@H]1O
Experiment: cells, lysate or membranes named
Description: TP_TRANSPORTER: uptake in Oatp2-expressing LLC-PK1 cells

B1: Solute carrier organic anion transporter family member 1A4 (Rattus norvegicus) (protein)
chain: MGKSEKRVATHGVRCFAKIKMFLLALTCAYVSKSLSGTYMNSMLTQIERQFGIPTSIVGLINGSFEIGNLLLIIFVSYFGTKLHRPIMIGVGCAVMGLGCFLISLPHFLMGQYEYETILPTSNVSSNSFFCVENRSQTLNPTQDPSECVKEMKSLMWIYVLVGNIIRGIGETPIMPLGISYIEDFAKSENSPLYIGILETGMTIGPLIGLLLASSCANIYVDIESVNTDDLTITPTDTRWVGAWWIGFLVCAGVNILTSFPFFFFPKTLPKEGLQENVDGTENAKEKKHRKKAKEEKRGITKDFFVFMKSLSCNPIYMLFILISVLQFNAFINSFTFMPKYLEQQYGKSTAEVVFLMGLYMLPPICLGYLIGGLIMKKFKVTVKKAAHLAFWLCLSEYLLSFLSYVMTCDNFPVAGLTTSYEGVQHQLYVENKVLADCNTRCNCSTNTWDPVCGDNGLAYMSACLAGCEKSVGTGTNMVFQNCSCIQSSGNSSAVLGLCNKGPDCANKLQYFLIIAIFGCFIYSLAGIPGYMVLLRCIKSEEKSLGVGLHAFCIRILAGIPAPIYFGALIDRTCLHWGTLKCGEPGACRMYDINSFRRLYLGLPAALRGASFVPAFFILRLTRTFQFPGDIESSKTDHAEMKLTLKESECTEVLRSKVTED
Protein B1 has a Km of 1.07 µM.
